Data as given in patent publication US7393448B2, “Method of binding a compound to a sensor surface” (Applied NanoSystems B.V., priority 2002, dated 2008).

Tests used:
[1] = Immobilization of electroactive molecules on HYDPt-1-modified electrodes (cyclic voltammetry); type: physicochemical; conditions: Q10 bound to GCE covered with HYDPt-1
Protocol: Electrochemical experiments. Voltammetry experiments were done at 20° C. in three-electrode arrangement, with a calomel reference electrode, platinum foil counter electrode and GE, GCE or TMFE as working electrodes. Eco Chemie AUTO-LAB PGSTAT 30 system was used as the potentiostat with an IBM PC and Eco Chemie software. In order to prepare the TMFE, a silver wire or silver disk electrode precleaned in concentrated perchloric acid was touched to a drop of mercury and cathodically polarized in 0.1 M KOH to obtain a shining and uniform layer of mercury, ca. 1 mm thick. The GE and GCE were polished on Buehler polishing papers and paste, and the GE was cleaned in concentrated nitric acid. The electrodes were coated with the self-assembled hydrophobin upon contact with the surface of solutions containing 2 μg of hydrophobin per 1 ml of 10 mM Tris-HCl buffer. The time of the hydrophobin self-assembly and the conditions of Q0, Q10 and diazobenzene adsorption on hydrophobin-coated electrodes are given below.
Hydrophobin as a “molecular glue” for immobilizing molecules on the electrode surface. In the present work, we checked the ability of HYDPt-1 to bind through adsorption to different types of electroactive molecules to electrode surfaces. […]
Curve 1 was recorded after adsorption of the diazobenzene for the same lapse of time, but on the bare GCE. […]

[2] = Immobilization of cholesterol oxidase on hydrophobin-coated glassy carbon electrode, current response to cholesterol; type: biochemical; conditions: GCE, phosphate buffer pH 7 (25 mM), cholesterol added
Excerpt: Immobilization of cholesterol oxidase on a glassy carbon electrode. […] The coated electrode was submerged in a cholesterol oxidase-containing solution (0.5 U/ml) for two hours and rinsed with water.
To overcome the poor solubility of cholesterol in water, the cholesterol was solubilized in isopropanol with Triton in phosphate buffer (Ropers, M-H. et al., 2001, Phys. Chem. Chem. Phys. 3:240-245). Upon addition of cholesterol, the immobilized cholesterol oxidase catalyzed the reaction and led to formation of hydrogen peroxide. The peroxide produced a small detectable current over the electrode which correlated to the concentration of cholesterol added.

[3] = at 50 μg ml^−1; cited from earlier work
[4] = cited from earlier work

## COC1=C(OC)C(=O)C(C/C=C(\C)CC/C=C(\C)CC/C=C(\C)CC/C=C(\C)CC/C=C(\C)CC/C=C(\C)CC/C=C(\C)CC/C=C(\C)CC/C=C(\C)CCC=C(C)C)=C(C)C1=O [Q10, ubiquinone 50]
[1]
  stability of ubiquinone reduction and oxidation signals: remained unchanged for several weeks

## cholesterol oxidase
[2]
  enzyme activity upon immobilization on the hydrophobin layer: remaining active

B1: SC3: best characterized class I hydrophobin, of Schizophyllum commune (protein, UniProt P16933 25-136, looked up)
Class I hydrophobin SC3: GGHPGTTTPPVTTTVTVTTPPSTTTIAAGGTCTTGSLSCCNQVQSASSSPVTALLGLLGIVLSDLNVLVGISCSPLTVIGVGGSGCSAQTVCCENTQFNGLINIGCTPINIL
[3]
  maximal lowering of the water surface tension (from 72): 24 mJ m^−2
[4]; hydrophilic side
  water contact angle, hydrophilic side of SC3 membrane: 36 °
[4]; hydrophobic side
  water contact angle, hydrophobic side of SC3 membrane: 110 °
